The supplement of paper PMC9170038

Test system: MS2 coat protein
Experiment: apparent KD of MS2 coat protein; designed switch direction (-1 OFF switch, 1 ON switch): -1; higher = weaker reporter binding
Method in brief: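 RNA switches sharing common flanks were transcribed by stalled E. coli RNA polymerase on Illumina chips. A doubling series of SNAP-549-labelled MS2 coat protein, from 0.7 or 1.5 nM to 3 µM, was applied in Tris-HCl pH 7.5 buffer with KCl, MgCl2, BSA, DTT, tRNA and Tween-20. Each step lasted 0.8–1.5 h at the bottom of the series and 10–20 min at the top. Normalised cluster fluorescence was curve-fitted, giving apparent KD as the per-design median over clusters.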

[1] = input ligand: microRNA oligo, concentration not stated

Sequence	apparent KD of MS2 coat protein (input ligand: FMN 200 uM) [nM]	apparent KD of MS2 coat protein [1] [nM]	apparent KD of MS2 coat protein (input ligand: none) [nM]
ACAUGAUCAGGAUAUACAUGAGGAUCACCCAUGUAAAUCAAAAAAAAACUUUCUUUAUGUAGAAGGGAUCUUGU [EX3 270: Random 6] (Eterna round: R96, puzzle: Exclusion 3)	15.2	13.6	15.3
ACAUGAUGCUUAGGAUAUGUUCUUACGCCAUGAAUAGAAGGGAGCGGACAGAAGUGACCUGACAUGAGGAUCACCCAUGUCUAA [Isusus] (Eterna round: R96, puzzle: Exclusion NG 1)	84.4	48	80.3
ACAUGUAUUGCAGGAUAUGGGACACAUGAGGAUCACCCAUGUGACUACAUGUAAUGCCACGGGUCUCAGAAGGGUAUGUACAUG [Ex NG2 #42] (Eterna round: R96, puzzle: Exclusion NG 2)	81.5	22.9	31.3
ACAUGUCAUCGAGGAUAUUGGACACAUGAGGAUCACCCAUGUACUCGGUUGCUCUAGCAUGAGUUCGAGAAGGCGAUGUACAUU [Ex NG2 #80] (Eterna round: R96, puzzle: Exclusion NG 2)	159	229	387
ACAUGUGUUGUAGGAUAUAGGAUACAUGAGGAUCACCCAUGUGGAUUCAUGUCAAAGGAAGCGUCCUAGAAGGACGGCAACAUG [Ex NG2 #24] (Eterna round: R96, puzzle: Exclusion NG 2)	46.6	38.3	49.6
ACAUGUGUUGUAGGAUAUAGGAUACAUGAGGAUCACCCAUGUGGAUUCAUGUCUAAGGAAGCGUCCUAGAAGGACGACAACAUG [Ex NG2 #25] (Eterna round: R96, puzzle: Exclusion NG 2)	83	21.6	27.6
ACAUGUUAUCUAGGAUAUUGGACACAUGAGGAUCACCCAUGUACCCGGAGGCUUUACUAUGAGUUCGAGAAGGAGAUGUACAUG [Ex NG2 #71] (Eterna round: R96, puzzle: Exclusion NG 2)	97.9	67.6	73.1
ACAUUACAUGAGGAUCACCCAUGUGAGGAUAUGGAGCGGUAGUGUCCUGUCGCGUACACCAGAAGGCGCGGGUG [1st #48] (Eterna round: R97, puzzle: Exclusion 1)	282		90.6
ACAUUGCGAGGAUAUACAUGAGGAUCACCCAUGUGGUGGCAGUUACGGUAGGACUAGUGUAGAAGGUGCCAUGG [EX3 #23] (Eterna round: R97, puzzle: Exclusion 3)	441		401
ACAUUUUAUCCAUGAUAUCACAUGAGGAUCACCCAUGUUAAGGCGAUUUUGAUUUGUAAGCUUUGUGCUCGACUUAU [JR_STOV1_Sub054] (Eterna round: R97, puzzle: Sensor, turn-off variant 1)	35.6		42.1
ACCAAUGCAGGAUAUACAUGAGGAUCACCCAUGUAUAACCUACAUAGAUGAUCAUCAUGUAGAAGGGCAAUGGA [EX3 229: Super Stable 29] (Eterna round: R96, puzzle: Exclusion 3)	12.2	11.1	14.6
ACCGCAAGAGGAUAUACAUGAGGAUCACCCAUGUCGACCGCGAGAGACGUGGACCGGCGUAGAAGGCUUGCCAC [Eternabot (Original) Solution 50] (Eterna round: R97, puzzle: Exclusion 3)	355		56.8
ACCUCACAUGAGGAUCACCCAUGUCAGGAUAUCCAACAUGCUCCCAGGACCAAGCAUAGGAGAAGGGACAUGCG (Eterna round: R97, puzzle: Exclusion 1)	76.5		27.2
ACCUCACAUGAGGAUCACCCAUGUCAGGAUAUCUAAUAUUGUAGCGUUCCCGACGCUAAGAGAAGGGACAUUAA [EX1 #31] (Eterna round: R97, puzzle: Exclusion 1)	19.5		16.5
ACCUCACAUGAGGAUCACCCAUGUCAGGAUAUCUGAUGUAGUCCCGUUCCGGACGCUGAGAGAAGGGACGUUGA [EX1 #39] (Eterna round: R97, puzzle: Exclusion 1)	38.9		51.6
ACCUUACUGGUCAGGAUAUACAGUCUUUGGUGUGUGUAGAAGGGACAUGAGGAUCACCCAUGUAGGUUGCUUUA [alecazam62] (Eterna round: R97, puzzle: Brourd's mod of Exclusion 4)	220		141
ACCUUACUUGAGGAUCACCCAAGUCAGGAUAUACACCAGAAUAAAUCCCAGCCCUGGCGUAGAAGGGACGGGUG [Soesma] (Eterna round: R97, puzzle: Exclusion 1)	23.9		21.8
ACGACGUAAGGAUAUACAUGAGGAUCACCCAUGUGGAGAUCCAGAGGAGAGACCUGACGUAGAAGGUGCGUCGA [Eternabot (L2) Solution 87] (Eterna round: R97, puzzle: Exclusion 3)	286		1400
ACGAUGACAGAAAGAUGUCAAAAGACAUGAGGAUCACCCAUGUAGGAUAUGGCUACGAAAAGUAGUCAGAAGGACAUGUCAUCA [Omei Exc(NG) 3 Av1] (Eterna round: R96, puzzle: Exclusion NG 3)	16.2	10.6	13.8
ACGAUGACCGAAAAGUGUUAACUGACAUGAGGAUCACCCAUGUAGGAUAUGGCUACGAAAAGUAGUCAGAAGGACAUGUCAUCA [Omei Exc(NG) 3 Av7] (Eterna round: R96, puzzle: Exclusion NG 3)	17.8	13.1	17.5
ACGCCAGGAGGAUAUGCAAUAAGUAACAUGAGGAUCACCCAUGUUCGGGCGAUCCUCGUGGCAGAAGGCCUAGCCG [Attira] (Eterna round: R97, puzzle: Exclusion 5)	95.5		24.4
ACGCCCUGAGGAUAUCUUAUCCCGUACAUGAGGAUCACCCAUGUUUUCCUCCGGGCUUCGAGAGAAGGCAGGCCCA [Armus14] (Eterna round: R97, puzzle: Exclusion 5)	88		39
ACGCGACAUGAGGAUCACCCAUGUGAGGAUAUGGCCUGUUUGUCGUGUGCUGGCUCUGUCAGAAGGCGCGUUGG [salish99_ex1_r4_042] (Eterna round: R97, puzzle: Exclusion 1)	255		128
ACGCUCCGUGUAGGAUAUCGCCGUACCACUCGGCGAGAAGGACAUGAGGAUCACCCAUGUAUGUUAUUAUCACGUGUGGCGCGC [Design 51] (Eterna round: R96, puzzle: Exclusion NG 1)	25.5	15.2	19.9
ACGGUUCUCCUCAGCUACAUGAGGAUCACCCAUGUGACUGAGCAGGAUAUACAUAAGUGCGAAAAGUAGAAGGGCUCGGCGCAC [Xeora] (Eterna round: R96, puzzle: Exclusion NG 3)	12.2	8.75	12.7
